Experimental data reported in patent US20230287088A1 (BIONTECH, published 2023).
Substitutions are numbered along the chain they refer to.

B1: P043.A.00047.H08 (protein sample ID 447) (antibody, V domains shown)
VH: QSLEESGGDLVKPGASLTLTCTASGFSFSSDGMCWVRQAPGKGLEWIACIAAGSSGSTYYATWAQGRFTISKSSSTTVTLQMTSLTAADTATYFCAGEDYTGNNYYALWGPGTLVTVSS
VL: AIDMTQTPSPVSAVVGDTVTINCQASENIYSFLAWYQQKPGQPPKLLIYFASKLASGVPSRFKGSGSGTQFTLTISDVHSDDAAIYYCQQTGTYSDADNTFGGGTEVVVK
notes: also called antibody with the Protein sample ID 447
B2: P043.A.00023.E05 (antibody, V domains shown)
VH: QSLEESGGRLVTPGTPLTLTCTVSGFSLSSYAMSWVRQAPGKGLEWIGIISSSGSTYYASWAKGRFTISKTSTTVDLKITSPTTEDTATYFCARDASSRGYYYYYGMDPWGPGTLVTVSS
VL: AIQMTQSPSSLAASVGDTVTITCKASEDIGYGLNWYQQKLGIAPKLLIYGANTLESGVPSRFSGSGSETDYTLTISSVQAEDAGIYYCQQGYSTPLTFGAGTKVEIK
notes: also called 443; protein sample ID 443
B3: P043.A.00092.C12 (antibody, V domains shown)
VH: QEELKETGGGLVQPGGSLTLSCKASGFDFSSYYMSWVRQAPGKGLEWIGVIYASKGSTDYASWVNGRFTISSDNAQNTVDLQMNSLTAADTATYYCARSKRFYTYGYAGYAYAHYYYGMDLWGPGTLVTVSS
VL: B2 VL with N52D
notes: also called 472; protein sample ID 472
B4: P043.A.00017.E07 (protein sample ID 449) (antibody, V domains shown)
VH: QSVEESGGRLVTPGTPLTLTCTVSGFSLSSYAMSWVRQAPGKGLEWIGIISSSGSTYYASWAKGRFTISKTSTTVDLKITSPTTEDTATYFCARAMYPGYSTGVYNIWGPGTLVTVSL
VL: B2 VL with G32E, S93N, L96N
B5: P043.A.00020.D06 (protein sample ID 444) (antibody, V domains shown)
VH: QSVEESGGRLVTPGTPLTLTCTVSGFSLSSYAMNWVRQAPGKGLEWIGIISSSGSTYYASWAKGRFTISKTSTTVDLKITSPTTEDTATYFCARVGAGYAGYGYDNYYGMDPWGPGTLVTVSS
VL: B2 VL
B6: P043.A.00017.E04 (antibody, V domains shown)
VH: QSVEESGGRLVTPGTPLTLTCTVSGFSLNNYAMNWVRQAPGKGLEWIGIISSSGNTYYANWAKGRFTISKTSTTVDLKITSPTTEDTATYFCARDSYPGYSPYYGMDPWGPGTLVTVSS
VL: B2 VL with G30A, A43T, D70H, S93N, L96P
B7: P043.A.00023.A08 (protein sample ID 446) (antibody, V domains shown)
VH: QSVEESGGRLVTPGTPLTLTCTVSGFSLSKYAMSWVRQAPGKGLEWIGIISSGGSTYYASWAKGRFTISKTSSTTVDLKITSPTTEDTATYFCARAGYPGYSPHYFNIWGPGTLVTVSL
VL: B2 VL with G32E, S63T, L96P
B8: P043.A.00097.B02 (antibody, V domains shown)
VH: QELVESGGGLVQAGESLKLSCKASGIDFSSYGISWVRQAPGKGLEWIAYIYPGFGITNYANSVKGRFTISSDNAQNTVFLQMTSLTASDTATYFCTRAYASSSGYYIHYFNLWGPGTLVTVSS
VL: B2 VL with G91A
B9: P043.A.00018.C02 (protein sample ID 450) (antibody, V domains shown)
VH: B2 VH with L3V, S51N, S53G, G54R, S97T, R99I, Y103R
VL: B2 VL
B10: P043.A.00024.C11 (protein sample ID 451) (antibody, V domains shown)
VH: B2 VH with L3V, S55T, R65P, D95G, A96G, S97A, S98G, R99Y, Y102A, Y103H
VL: B2 VL
B11: 408: Antibody anti-S1 antibody (LS) (antibody)
heavy: not shown
light: […]
B12: P043.A.00036.C07 (antibody, V domains shown)
VH: QSLEESGGDLVKPGASLTLTCTASGFSFSSSYWICWVRQAPGKGLEWIGCIYTGSGSTWYASWAKGRFTISKTSSTTVTLQMTSLTAADTATYFCARGYGSYMYDFWGPGTLVTVSS
VL: DVVMTQTPASVEAAVGGTVTIKCQASQSISTALAWYQQKPGQPPKLLIYSASTLESGVPSRFKGSGSGTEFTLAISDLESADAATYYCQGADGSSSSFGGGTEVVVK
notes: also called 448; protein sample ID 448
B13: P043.A.00095.D06 (protein sample ID 470) (antibody, V domains shown)
VH: QEQLEESGGDLVKPEGSLTLTCTASGFSFSSNYWICWVRQAPGKGLEWIGCIYIGSGDTYYASWAKGRFTISKTSSTTVTLQMTSLTAADTATYFCARSYTPGSYYNMNLWGPGTLVTVSS
VL: DVVMTQTPSSVSAAVGGTVTINCQASQQISNELSWYQQKSGQPPKLLIYDASDLASGVPSRFKGSGSGTEFTLTISDLESADAATYYCQSTGGASSDGNAFGGGTEVVVK
notes: also called S1 targeting antibody 470; anti-S1-antibody 470
B14: P043.A.00109.B12 (antibody, V domains shown)
VH: QSLEESGGGLVKPEGSLTLTCKASGFDLNTYYYMCWVRQAPGKGLEWIACIATSDSGHTAYASWARGRFTISKTSSTTVTLQMTGLTAADTATYFCARGGRSVGDGVDLWGPGTLVTVSS
VL: DIVMTQTPASVEAAVGGTVTIKCQASQSISSWLAWYQQKPGQPPKLLIYDASDLASGVPSRFKGSGSGTEFTLTISDLESADAATYYCQSYLYVESGSHGFGFGGGTEVVVR
notes: also called 468; protein sample ID 468
B15: P043.A.00117.C08 (protein sample ID 469) (antibody, V domains shown)
VH: B14 VH with A52G
VL: B14 VL with S52F, V94G
B16: P043.A.00032.C04 (antibody, V domains shown)
VH: QSLEESGGRLVTPGTPLTLTCTASGFSLSSYWMSWVRQAPGKGLEWIGIIYVSGSTYYASWAKGRFTISKTSTTVDLKMTSLTTEDTATYFCARVDYSTGWPLFNIWGPGTLVTVSL
VL: AQVLTQTASPVSAAVGGTVTINCQSSQSVYDNNWLGWYQQKPGQPPKLLIYGASILASGVPSRFKGSGSGTQFTLTISDLESDDAATYYCQGGCSGNTFVFGGGTEVVVK
notes: also called 452; protein sample ID 452

Target: SARS-CoV-2 S1 protein (HIS tag, active trimer; Acro Biosystems #SPN-C52H8) (SARS-CoV-2, UniProt P0DTC2 16-1213)
Assay: ELISA on coated S active trimer

Row | Binder | EC50 [ng/mL]
1 | B1 | 9.1
2 | B2 | 9
3 | B3 | 10.6
4 | B4 | 6.6
5 | B5 | 11.2
6 | B6 | 6.4
7 | B7 | 5.6
8 | B8 | 6.9
9 | B9 | 6.6
10 | B10 | 8.8
11 | B11 | 25.6
12 | B12 | 7.7
13 | B13 | 6.9
14 | B14 | 10
15 | B15 | 7.8
16 | B16 | 8.2
